In patent publication US20190248902A1 (published 2019):
Substitutions are numbered along the chain they refer to.

Legend:
Rat ASGR-1 = molecular target: T1, Rat ASGR-1 (rat, UniProt P02706 1-284); experiment: FACS on transfected HEK 293 cells or membrane preps on beads; binding = signal at least 2x irrelevant IgG
T1 construct: Expressed on HEK 293 cells or as membrane prep on beads; cDNA GenBank NM_012503
T1 sequence: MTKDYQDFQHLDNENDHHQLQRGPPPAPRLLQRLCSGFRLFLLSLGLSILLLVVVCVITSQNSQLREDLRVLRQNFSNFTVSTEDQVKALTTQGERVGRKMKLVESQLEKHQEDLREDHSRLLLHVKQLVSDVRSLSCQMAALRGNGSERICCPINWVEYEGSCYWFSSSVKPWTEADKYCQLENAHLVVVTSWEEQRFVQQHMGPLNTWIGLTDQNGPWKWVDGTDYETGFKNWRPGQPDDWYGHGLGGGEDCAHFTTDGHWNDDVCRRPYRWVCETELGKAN
Outline: (§1)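 Antibodies at normalized concentrations bound 1 h at 4° C to HEK 293 cells expressing each antigen, then Alexa Fluor 647 anti-Fc plus 7-AAD 15 min at 4° C, flow cytometry; empty-vector cells as negative. Alternatively, species ASGR-1 membrane preps on streptavidin beads, antibody 1 h RT, Alexa Fluor 488 anti-Fc; FACS buffer with 1 mM CaCl2 throughout.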

Dog ASGR-1 = molecular target: T2, Dog ASGR-1 (dog); experiment: as above
T2 construct: Expressed on HEK 293 cells or as membrane prep on beads; cDNA GenBank XM_546579
T2 chain: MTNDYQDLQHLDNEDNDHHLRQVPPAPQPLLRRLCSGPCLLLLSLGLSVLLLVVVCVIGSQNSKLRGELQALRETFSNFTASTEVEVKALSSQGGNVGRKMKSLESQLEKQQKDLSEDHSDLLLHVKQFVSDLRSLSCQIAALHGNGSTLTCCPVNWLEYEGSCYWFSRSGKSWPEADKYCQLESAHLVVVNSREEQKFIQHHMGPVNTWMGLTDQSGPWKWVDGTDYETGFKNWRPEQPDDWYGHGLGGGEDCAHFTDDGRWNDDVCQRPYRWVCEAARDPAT
Outline: as §1

B1: 75G3 (antibody, V domains shown)
VH: QVQLQQWGAGLLKPSETLSLTCAVYGGSLSGSYWSWIRQPPGKGLEWIGEINLSGSTNYNPSLKSRVTISVDTSKSQFSLTLRSVTAADTAVYYCARDYGGLDYWGQGTLVTVSS
VL: EIVLTQSPGTLSLSPGERATLSCRARQNVDSSYLAWYQQKPGQAPRLLIYGASSRATGIPDRFSGSGSGTDFTLTISRLEPEDFAVFYCQQYERSPWTFGQGTKVEIK
notes: Tested as hybridoma supernatant at normalized concentration
binding result (Rat ASGR-1): no binding

B2: 218G4 (antibody, V domains shown)
VH: QVQLVESGGGVVQPGRSLRLSCAASGFTFSSYGLHWVRQAPGKGLEWVAVIWYDGSNKYYADSVKGRFTISRDNSKNTLYLQMNSLRVEDTAVYYCANWYYYYYGMDVWGQGTTVTVSS
VL: QSVLTQPPSVSAAPGQKVTISCSGSSSNIGNNYVSWYQQLPGTAPKLLLYDSNKRPSGIPARFSGSKSGTSATLGITGLQTGDEADYYCGTWDSSLNTVVFGGGTKLTVL
notes: as for B1
binding result (Rat ASGR-1): no binding

B3: 198D2 (antibody, V domains shown)
VH: QVQLVESGGGVVQPGRSLRLSCAASGFTFRSYGMHWVRQAPGKGLEWVAVIIYDGSYKYYADSVKGRFTISRDNSKNTLYLQMNSLRAEDTAVYYCARTYSGGMDVWGQGTTVTVSS
VL: B2 VL with N31S, L47V, L49I, S52N, A61D, S95R, T98V, V99G
notes: as for B1
binding result (Dog ASGR-1): no binding

B4: 7E11 (antibody, V domains shown)
VH: QVQLVESGGGVVQPGRSLRLSCAASGFTFSSFGMHWVRQAPGKGLEWVAIIWHDGSNKYYADSVKGRFTISRDNSNNTLYLQMSSLRAEDTAVYYCARDLSMGGMDVWGQGTTVTVSS
VL: DIQMTQSPSSLSASVGDRVTIACRASQNIISYLNWYQQKPGKAPKFLIYTASSLQSGVPSRFSGSGSGTDFTLTISSLQPEDFAIYYCQQTYSTPLTFGGGTKVEIK
notes: as for B1
binding result (Dog ASGR-1): no binding | binding result (Rat ASGR-1): no binding

B5: 176H4 (antibody, V domains shown)
VH: QVQLVESGGGVVQPGRSLRLSCAASGFTFSSYGMHWVRQAPGKGLEWVAIIWYDGSYKYYADSVKGRFTISRDNSKNTLYLQMSSLRAEDTAVYYCARDAHDFWSGYFAYWGQGALVTVSS
VL: DIVMTQTPLSLSVTPGQPASISCKSSQSLLHGDGKTYLYWYLQKPGQPPQLLIYEVSNRFSGVPDRFSGSGSGTDFTLKISRVEAEDVGIYYCMQSIQIPWTFGQGTRVEIK
notes: as for B1
binding result (Rat ASGR-1): no binding

B6: 190F8 (antibody, V domains shown)
VH: QVQLVESGGGVVQPGRSLRLSCAASGFTFSTYGMHWVRQAPGKGLEWVAVIWYDGSNKNYADSVKGRFTISRDNSKNTLYLQMNSLRAEDTAVYYCARDQGVGYDGLDVWGQGTTVTVSS
VL: DIQMTQSPSSLSASVGDRVTITCRTSQGIGNYLAWFQQKPGKAPKSLLYKASSLQSGVPSKFSGSGSGTDFTLTISSLQPEDFATYYCQQYMTYPLTFGGGTKVEIK
notes: as for B1
binding result (Rat ASGR-1): no binding

B7: 194C1 (antibody, V domains shown)
VH: B6 VH with T31S, K58E, N59H, D99N, Q100R, D105Y
VL: B6 VL with T25A, G30S, L48I, K50A, Q89L, Q90H, M92L
notes: as for B1
binding result (Rat ASGR-1): no binding

B8: 197G3 (antibody, V domains shown)
VH: B6 VH with A23V, T31S, Y32H, Q100P, G101S, L107M
VL: DIQMTQSPSSLSASVGDRVTITCRASQGIGNHLAWFQQKPGKAPKSLIYAASSLQSGVPSKFSGSRSGTDFSLTISSLQPEDFATYYCQQYSNYPVTFGPGTKVDIK
notes: as for B1
binding result (Rat ASGR-1): no binding

B9: 191G1 (antibody, V domains shown)
VH: B6 VH with T31S, K58E, N59H, Q100R, D105Y
VL: B6 VL with T25A, G30S, L48I, K50A, Q90H, M92L
notes: as for B1
binding result (Rat ASGR-1): no binding

B10: 191G10 (antibody, V domains shown)
VH: B6 VH with T31S
VL: B6 VL with N31K, A51V
notes: as for B1
binding result (Rat ASGR-1): no binding

B11: 198G3 (antibody, V domains shown)
VH: B6 VH with R19K, S56T, Y80C
VL: B6 VL with T5A, N31K, S56G
notes: as for B1
binding result (Rat ASGR-1): no binding

B12: 7G4 (antibody, V domains shown)
VH: QVQLVESGGGVVQPGRSLRLSCAASGFTFNNYVMHWVRQAPGKGLEWVAVIWYDGSNKYYADSVKGRFTISRDNSKNTLYLQMTSLRAEDTAVYYCAREKYSSNWYDYGMDVWGQGTTVTVSS
VL: DIQMTQSPSSLSASVGDRVTITCRASQGIRNDLGWYQQRPGKAPKRLIYAASSLQSGVPSRFSGSGSGTEFTLTISSLQPEDSATYYCLHQYSYPRTFGQGTKVEIK
notes: as for B1
binding result (Dog ASGR-1): no binding | binding result (Rat ASGR-1): no binding

B13: 48B12 (antibody, V domains shown)
VH: EVQLLESGGGLVQPGGSLRLSCAASGFTFSSYAMNWVRQAPGKGLEWVSAISGRGGNTFYADSVKGRFTISRDNSKNTLYLQMNSLRAEDTAVYYCAKRETYNWNYEGFDYWGQGTLVTVSS
VL: SYELTQPPSVSVSPGQTARITCSGDALPKKYAYWYQQKSGQAPVLVIYEDSKRPSGIPERFSGSSSGTMATLTISGAQVEDEADYYCNSTDSSGNHVVFGGGTKLTVL
notes: as for B1
binding result (Dog ASGR-1): no binding | binding result (Rat ASGR-1): no binding

B14: 25A4 (antibody, V domains shown)
VH: QVLLVQSGAEVKRPGASVKVSCKASGYTFTNYDINWVRQATGQGLEWMGWMYPNSGNTGYAQKFQGRVTMTRNTSISTAYMELSSLRSEDTAVYYCASSSGWYYFDYWGQGTLVTVSS
VL: DIVMTQFPDSLAVSLGERATIKCKSSQSVLYSSHNNNYLAWYQQKPGQPPKLLLYWASTRESGVPDRFSGSGSGTEFTLTISSLEAEDVAVYYCQQYYSTPPTFGQGTKVEIK
notes: as for B1
binding result (Dog ASGR-1): no binding

B15: 4A2 (antibody, V domains shown)
VH: B14 VH with L3Q, A9T, R13K, Y52H, M70L
VL: DIVMTQSPDSLAVSLGERATINCKSSQSILHSSNNNNYLAWFQQKPGQPPKLLLYWASTRESGVPDRFSGSGSGTDFTLTISSLQPEDVAVYYCQQYYNTPVTFGPGTKVGIK
notes: as for B1
binding result (Dog ASGR-1): no binding

B16: 26C4 (antibody, V domains shown)
VH: B14 VH with L3Q, R13K, T41S, Y52N, K63R, S77N
VL: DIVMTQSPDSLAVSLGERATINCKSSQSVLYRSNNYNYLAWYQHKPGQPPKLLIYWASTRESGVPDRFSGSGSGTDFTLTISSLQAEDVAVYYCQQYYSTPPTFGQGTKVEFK
notes: as for B1
binding result (Dog ASGR-1): no binding

B17: 29H8 (antibody, V domains shown)
VH: B14 VH with L3Q, K12Q, R13K, Y52N, K63R, T78A
VL: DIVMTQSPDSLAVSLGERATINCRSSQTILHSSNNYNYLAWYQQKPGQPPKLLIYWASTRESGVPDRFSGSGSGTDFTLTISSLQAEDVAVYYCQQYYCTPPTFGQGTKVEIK
notes: as for B1
binding result (Dog ASGR-1): no binding

B18: 202A3 (antibody, V domains shown)
VH: QVQLEQSGAEVKKPGASVKVSCKASGYTFTSYDINWVRQATGQGLEWLGWMNPKRGNTGYAQKFQGRVTMTRNTSISTAHMELSSLRSEDTAVYYCARGRYSREDYYYYYDMDVWGQGTTVTVSS
VL: DIQMSQSPSSLSASVGDRVTITCRASQGIRNDLGWYQQKPGKAPKRLICAASRLQSGVPSRFSGSGSGTEFTLTISSLQPEDFAIYYCLQHHDYPFTFGPGTKVDIK
notes: as for B1
binding result (Rat ASGR-1): no binding

B19: 194C10 (antibody, V domains shown)
VH: QVQLQQWGAGLLKPSETLSLTCAVSGGSFRYYYWSWIRQPPGKGLEWFGEINHSGSTNYNPSLKSRVTISIDTSKNQFSLKLRSVTAADTAVYYCARDYGAFDIWGQGTMVTVSS
VL: EIVLTQSPGTLSLSPGERATLSCRASPSVNSGYLAWYQQKPGQTPRLLIFGASSRATGIPDRFSASGSGADFTLTISRLEPEDFAVYFCQQYESSPWTFGQGTKVEIK
notes: as for B1
binding result (Rat ASGR-1): no binding
